Target: HA stem domain construct mutant M6 (A/California/05/2009 (H1N1) HA stem fused to foldon, refolded trimer) (Influenza A virus A/California/05/2009 (H1N1))

antibody C179 (Mouse IgG) (TAKAR Bio INC.)
fold better recognition than commercial full-length HA: 30 fold
